# Read-outs that look alike come from different tables or passages of the source.
# B1: PP1894 S3B-C8_smAKAP-C16S_R2B-D5_H6 (VHH)
# chain: QVQLVESGGGLVQPGGSLRLSCAASGSIENIERMHWYRQAPGKQRELVAVIDSGGTTRYADSVKGRFTISRDNAKNTVYLQMNSLKPEDTAVYYCAAVWLTNAESTQEYWGQGTQVTVSSTVILEYAHRLSQDILSDALQQWASQVQLVESGGGLVQPGGSLRLSCAASGYADEINMVHWYRQAPGKGREFVAAIASGGSTFYADSVKGRFTISRDNAKNTVYLQMNSLKPEDTAVYYCAAIPRPSLSYAHDYAYWGQGTQVTVSSHHHHHH
# B2: MBP-5HVZ-R5D-G1-H6 (VHH, not shown: large carriers; small tags and cut ends)
# VHH: QVQLVESGGGLVQPGGSLRLSCAASGSIFGINDVHWFRQAPGKEREFVATITNGLSARYKDSVKGRFTISRDNAKNTVYLQMNSLKPEDTAVYYCAAQVYITTYELYDYWGQGTQVTVSS
# B3: MBP-5HVZ-R5C-G6-H6 (VHH, not shown: large carriers; small tags and cut ends)
# VHH: QVQLVESGGGLVQPGGSLRLSCAASGSIESINAIHWFRQAPGKAREEVAAITENDVDYYADSVKGRFTISRDNAKNTVYLQMNSLKPEDTAVYYCASLSSGYQYVGFRYWGQGTQVTVSS
# B4: MBP-R5D-D4-H6 (VHH, not shown: large carriers; small tags and cut ends)
# VHH: QVQLVESGGGLVQPGGSLRLSCAASGSDFTINAMHWFRQAPGKQREFVATITSTSSTAYRDSVKGRFTISRDNAKNTVYLQMNSLKPEDTAVYYCAAFAVRDADTAGWTARDYWGQGTQVTVSS
# B5: PP1145 MBP-5HVZ-PAPA-R2d-A6-H6 (VHH)
# VHH: QVQLVESGGGLVQPGGSLRLSCAASGSGASIGAMHWFRQAPGKGREWVASITSAGNTYYGDSVKGRFTISRDNAKNTVYLQMNSLKPEDTAVYYCNALAGANYESQWEEYNYWGQGTQVTVSS
# notes: Form: Dimer
# B6: PP1157 MPB-scTRP-PAPA-R2d-A6-H6 (VHH)
# VHH: B5 VHH
# notes: Form: Trimer
# B7: PP1133 MBP-4B0F-PAPA-R2d-A6-H6 (VHH)
# VHH: B5 VHH
# notes: Form: Heptamer
# B8: PP900 MBP-5HVZ-R5a-F2-H6 (VHH)
# VHH: QVQLVESGGGLVQPGGSLRLSCAASGSISSIEAMSWFRQAPGKQREGVATMASGGDTSYADSVKGRFTISRDNAKNTVYLQMNSLKPEDTAVYYCAAQTYRPDTWGRYTFWGQGTQVTVSS
# notes: Form: Dimer
# B9: MBP-5HVZ-R5C-F6-H6 (VHH, not shown: large carriers; small tags and cut ends)
# VHH: QVQLVESGGGLVQPGGSLRLSCAASGQTNSILAMHWYRQAPGKQREAVATITSGSNSTYADSVKGRFTISRDNAKNTVYLQMNSLKPEDTAVYYCAARNGKLSPKANQRLYWGQGTQVTVSS
# B10: PP903 MBP-5HVZ-R1i-A11-H6 (VHH)
# VHH: QVQLVESGGGLVQPGGSLRLSCAASGSILQINAIHWFRQAPGKQREEVAAITSGGSTGYADSVKGRFTISRDNAKNTVYLQMNSLKPEDTAVYYCAATSTRGGLDSDYWGQGTQVTVSS
# notes: Form: Dimer
# B11: MBP-5HVZ-R5D-G6-H6 (VHH, not shown: large carriers; small tags and cut ends)
# VHH: QVQLVESGGGLVQPGGSLRLSCAASGRILAANIVHWYRQAPGKNREGVAGITSGGSTYYADSVKGRFTISRDNAKNTVYLQMNSLKPEDTAVYYCAAKPLGSPDDFDYWGQGTQVTVSS
# B12: PP1895 S3B-C8_smAKAP-C16S_S3B-C8_H6 (VHH)
# chain: QVQLVESGGGLVQPGGSLRLSCAASGSIENIERMHWYRQAPGKQRELVAVIDSGGTTRYADSVKGRFTISRDNAKNTVYLQMNSLKPEDTAVYYCAAVWLTNAESTQEYWGQGTQVTVSSTVILEYAHRLSQDILSDALQQWASQVQLVESGGGLVQPGGSLRLSCAASGSIENIERMHWYRQAPGKQRELVAVIDSGGTTRYADSVKGRFTISRDNAKNTVYLQMNSLKPEDTAVYYCAAVWLTNAESTQEYWGQGTQVTVSSHHHHHH
# B13: MBP-5HVZ-R5C-F3-H6 (VHH, not shown: large carriers; small tags and cut ends)
# VHH: QVQLVESGGGLVQPGGSLRLSCAASGTIPSINYTAWYRQAPGKQRELVASLTSGDNRYYTDSVKGRFTISRDNAKNTVYLQMNSLKPEDTAVYYCNAKTVGSSYRDSYNYWGQGTQVTVSS
# B14: PP906 MBP-5HVZ-S1b-E7-H6 (VHH)
# VHH: QVQLVESGGGLVQPGGSLRLSCAASGGEFSDNGLHWFRQAPGKQREFVATASSDGSTQYRDSVKGRFTISRDNAKNTVYLQMNSLKPEDTAVYYCTALLMSSAGEYDVWGQGTQVTVSS
# notes: Form: Dimer
# B15: MBP-5HVZ-R5D-E4-H6 (VHH, not shown: large carriers; small tags and cut ends)
# VHH: QVQLVESGGGLVQPGGSLRLSCAASGQISSNNGMHWFRQAPGKRREFVATATTGGTTSYADSVKGRFTISRDNAKNTVYLQMNSLKPEDTAVYYCTALLMSRAGEFDYWGQGTQVTVSS
# B16: PP1146 MBP-5HVZ-PAPA-R2d-D3-H6 (VHH)
# VHH: QVQLVESGGGLVQPGGSLRLSCAASGHIFSINNAAWVRQAPGKSREGVATIHSGGGTYYSDSVKGRFTISRDNAKNTVYLQMNSLKPEDTAVYYCNAEVSTGAGSRGRVSDVYWGQGTQVTVSS
# notes: Form: Dimer
# B17: PP1134 MBP-4B0F-PAPA-R2d-D3-H6 (VHH)
# VHH: B16 VHH
# notes: Form: Heptamer
# B18: PP1181 R2d-D3-PP7-H6 (VHH)
# VHH: B16 VHH
# B19: PP1158 MPB-scTRP-PAPA-R2d-D3-H6 (VHH)
# VHH: B16 VHH
# notes: Form: Trimer
# B20: PP1144 MBP-5HVZ-PAPA-R2c-F6-H6 (VHH)
# VHH: QVQLVESGGGLVQPGGSLRLSCAASGRILAANIVHWYRQAPGKEREGVAGITTGGSNYYSDSVKGRFTISRDNAKNTVYLQMNSLKPEDTAVYYCNALGLGSASGSYESWGQGTQVTVSS
# notes: Form: Dimer
# B21: PP1132 MBP-4B0F-PAPA-R2c-F6-H6 (VHH)
# VHH: B20 VHH
# notes: Form: Heptamer
# B22: PP1156 MPB-scTRP-PAPA-R2c-F6-H6 (VHH)
# VHH: B20 VHH
# notes: Form: Trimer
# B23: MBP-5HVZ-R5D-B2-H6 (VHH, not shown: large carriers; small tags and cut ends)
# VHH: QVQLVESGGGLVQPGGSLRLSCAASGSIWSIAFMSWYRQAPGKGREWVAAITTGNDEAYADSVKGRFTISRDNAKNTVYLQMNSLKPEDTAVYYCAANTYERTPDGRTFSYWGQGTQVTVSS
# B24: PP904 MBP-5HVZ-R5b-C5-H6 (VHH)
# VHH: QVQLVESGGGLVQPGGSLRLSCAASGSPFKTQTVHWFRQAPGKGREWVASITSGSGTQYMDSVKGRFTISRDNAKNTVYLQMNSLKPEDTAVYYCAAANDGYGVDWGQGTQVTVSS
# notes: Form: Dimer
# B25: MBP-5HVZ-R5D-A1-H6 (VHH, not shown: large carriers; small tags and cut ends)
# VHH: QVQLVESGGGLVQPGGSLRLSCAASGSISSYNAMHWFRQAPGKQREWVAGLTSSGSDGYVDSVKGRFTISRDNAKNTVYLQMNSLKPEDTAVYYCNAFSYHTYSRYDFWGQGTQVTVSS
# B26: MBP-5HVZ-R5D-F3-H6 (VHH, not shown: large carriers; small tags and cut ends)
# VHH: QVQLVESGGGLVQPGGSLRLSCAASGSQLSINYVHWFRQAPGKQREFVAAITITGSSYYADSVKGRFTISRDNAKNTVYLQMNSLKPEDTAVYYCNTVDRTDNYGYDYWGQGTQVTVSS
# B27: MBP-5HVZ-R5C-F5-H6 (VHH, not shown: large carriers; small tags and cut ends)
# VHH: QVQLVESGGGLVQPGGSLRLSCAASGSYFKINSLAWFRQAPGKAREVVAAIHSGDGTNYADSVKGRFTISRDNAKNTVYLQMNSLKPEDTAVYYCAADQAWVRAGTYDYWGQGTQVTVSS
# B28: PP1892 R2B-D5_smAKAP-C16S_S3B-C8_H6 (VHH)
# chain: QVQLVESGGGLVQPGGSLRLSCAASGYADEINMVHWYRQAPGKGREFVAAIASGGSTFYADSVKGRFTISRDNAKNTVYLQMNSLKPEDTAVYYCAAIPRPSLSYAHDYAYWGQGTQVTVSSTVILEYAHRLSQDILSDALQQWASQVQLVESGGGLVQPGGSLRLSCAASGSIENIERMHWYRQAPGKQRELVAVIDSGGTTRYADSVKGRFTISRDNAKNTVYLQMNSLKPEDTAVYYCAAVWLTNAESTQEYWGQGTQVTVSSHHHHHH
# B29: MBP-5HVZ-R5E-G2-H6 (VHH, not shown: large carriers; small tags and cut ends)
# VHH: QVQLVESGGGLVQPGGSLRLSCAASGTIKSINAMHWFRQAPGKAREFVASIGSNGAKSYSDSVKGRFTISRDNAKNTVYLQMNSLKPEDTAVYYCTALITVAESDDYDYWGQGTQVTVSS
# Tests used:
# [1] = biological target: T1, recombinant SARS-CoV-2 RBD with C-terminal AviTag (SARS-CoV-2, UniProt P0DTC2 319-541)
# [2] = biological target: T1, recombinant SARS-CoV-2 RBD with …; remark: listed apart in the source
# [3] = biological target: T1, recombinant SARS-CoV-2 RBD with …; remark: listed apart in the source
# [4] = biological target: SARS-COV-2 Wuhan Reference RBD (SARS-CoV-2, UniProt P0DTC2 319-541); assay: ELISA, RBD coated
# [5] = biological target: T1, recombinant SARS-CoV-2 RBD with …; assay: ELISA, competition with coated ACE2-Fc for RBD [Cont. 1]
# [6] = biological target: T1, recombinant SARS-CoV-2 RBD with …; assay: BLI, biotinylated RBD on streptavidin biosensors [Cont. 6]
# [7] = biological target: T1, recombinant SARS-CoV-2 RBD with …; assay: ELISA, competition with coated ACE2-Fc for RBD [Cont. 6]
binder,measurement,setting,value
B1,Kd,[1],0.44 nM
same,koff,[1],0.000599 s⁻¹
same,kon,[1],1.34e+06 M⁻¹ s⁻¹
B2,IC50,[2],12.4 nM
B3,IC50,[3],8.7 nM
B4,Kd,[2],100 nM
B5,EC50,[4],1.33 nM
same,IC50,[5],3.8 nM
B6,IC50,[5],4.7 nM
B7,IC50,[5],11 nM
B8,EC50,[4],0.47 nM
same,Kd,[6],9.13 nM
same,IC50,[7],1.7 nM
B9,IC50,[3],110 nM
B10,EC50,[4],0.27 nM
same,Kd,[6],6.98 nM
same,IC50,[7],1.5 nM
B11,IC50,[2],3.2 nM
same,Kd,[2],31.3 nM
B12,Kd,[1],2.06 nM
same,koff,[1],0.00761 s⁻¹
same,kon,[1],3.69e+06 M⁻¹ s⁻¹
B13,IC50,[3],11.9 nM
same,Kd,[3],11.3 nM
B14,EC50,[4],2 nM
same,Kd,[6],15.5 nM
same,IC50,[7],35.7 nM
B15,IC50,[2],13.7 nM
same,Kd,[2],9.34 nM
B16,IC50,[5],2.1 nM
B17,IC50,[5],27.7 nM
B18,IC50,[5],282 nM
B19,IC50,[5],43.4 nM
B20,IC50,[5],3.2 nM
B21,IC50,[5],158 nM
B22,IC50,[5],165 nM
B23,Kd,[3],1.21 nM
B24,EC50,[4],1.06 nM
same,Kd,[6],11.8 nM
same,IC50,[7],2.5 nM
B25,IC50,[3],12.6 nM
B26,IC50,[2],29.3 nM
B27,IC50,[3],3.9 nM
same,Kd,[3],3.13 nM
B28,Kd,[1],0.33 nM
same,koff,[1],0.000411 s⁻¹
same,kon,[1],1.23e+06 M⁻¹ s⁻¹
B29,Kd,[2],3.14 nM

# From patent US20240150440A1 (LUMEN BIOSCIENCE, published 2024)
